How the values were obtained:
human CLDN3 = molecular target: T1, human CLDN3 (human, UniProt O15551 1-220); experiment: flow cytometry on transiently transfected 293T cells
T1 construct: whole, on cells
T1 sequence (looked up): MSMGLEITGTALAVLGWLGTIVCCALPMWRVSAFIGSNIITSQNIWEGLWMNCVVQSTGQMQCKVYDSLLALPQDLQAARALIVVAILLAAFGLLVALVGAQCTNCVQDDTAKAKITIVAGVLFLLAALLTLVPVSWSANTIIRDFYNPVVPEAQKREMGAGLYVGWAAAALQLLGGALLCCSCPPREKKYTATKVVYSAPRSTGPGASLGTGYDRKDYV
Procedure: (§1) Binding activity of the mouse anti-CLDN6 antibodies produced in Example 6 to human CLDN6 and its family molecules, CLDN3, CLDN4, and CLDN9, was evaluated by using a flow cytometry method. Human CLDN3/pCMV6-Entry, human CLDN4/pCMV6-Entry, human CLDN6/pCMV-Entry, human CLDN9/pCMV6-Entry, or pCMV6-Entry purchased from OriGene Technologies, Inc. was transiently transferred into 293T cells (Thermo Fisher Scientific, HCL4517) by using Lipofectamine 2000 (Thermo Fisher Scientific), and the cells were cultured under conditions of 37° C. and 5% CO₂ overnight, and then a cell suspension was prepared. […] The cells were washed twice with Dulbecco's phosphate buffered saline (Sigma-Aldrich Co. LLC) containing 5% fetal bovine serum (Hyclone) (hereinafter, referred to as 5% FBS-containing PBS), and FLUORESCEIN-CONJUGATED GOAT IGG FRACTION TO MOUSE IGG (WHOLE MOLECULE) (MP Biomedicals, Inc.) 500-fold diluted with 5% FBS-containing PBS was then added thereto, and the cells were suspended and left to stand at 4° C. for 1 hour. After washing twice with 5% FBS-containing PBS, detection was carried out by using a flow cytometer (FC500; Beckman Coulter, Inc.). Data analysis was carried out by using FlowJo (Tree Star, Inc.). […] In each graph in FIG. 40, the ordinate represents FITC fluorescence intensity indicating the amount of the binding antibody and the abscissa represents antibody concentrations.
(§2) The binding activity of the humanized anti-CLDN6 antibody produced in Example 10 to human CLDN6 and its family molecules, CLDN3, CLDN4, and CLDN9, was evaluated by using a flow cytometry method.

human CLDN4 = molecular target: T2, human CLDN4 (human, UniProt O14493 1-209); experiment: as above
T2 construct: whole, on cells
T2 sequence (looked up): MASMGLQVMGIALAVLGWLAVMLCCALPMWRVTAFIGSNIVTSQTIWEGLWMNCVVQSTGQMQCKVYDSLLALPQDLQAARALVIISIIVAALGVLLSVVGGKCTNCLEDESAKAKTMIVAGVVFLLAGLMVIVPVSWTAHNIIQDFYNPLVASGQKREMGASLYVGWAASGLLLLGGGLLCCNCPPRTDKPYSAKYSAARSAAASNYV
Procedure: as §1, §2

human CLDN6 = molecular target: T3, human CLDN6 (human, UniProt P56747 1-220); experiment: flow cytometry (MFI) on transiently transfected 293T cells
T3 construct: Four-transmembrane protein, NP_067018; It was also expressed on CHO-K1 cells by cDNA transfection; In the immunoprecipitation it was the endogenous protein from NTERA-2 cell lysate; also called hCLDN6; claudin-6
T3 sequence: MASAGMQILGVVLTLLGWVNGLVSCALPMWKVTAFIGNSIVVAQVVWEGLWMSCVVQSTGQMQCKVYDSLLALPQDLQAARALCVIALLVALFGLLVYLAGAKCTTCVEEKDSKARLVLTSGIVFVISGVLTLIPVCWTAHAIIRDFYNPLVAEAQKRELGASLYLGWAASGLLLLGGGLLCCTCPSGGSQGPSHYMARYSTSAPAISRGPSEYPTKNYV
Procedure: (§3) The binding activity of the humanized anti-CLDN6 antibody produced in Example 10 to human CLDN6 and its family molecules, CLDN3, CLDN4, and CLDN9, was evaluated by using a flow cytometry method. […] The cells were washed with Dulbecco's phosphate buffered saline (Sigma-Aldrich Co. LLC) containing 5% fetal bovine serum (Hyclone) (hereinafter, referred to as 5% FBS-containing PBS), and FITC AffiniPureF (ab′)2 Fragment Goat Anti-Human IgG (H+L) (Jackson ImmunoResearch Laboratories Inc.) 150-fold diluted with 5% FBS-containing PBS was then added thereto, and the cells were suspended and left to stand at 4° C. for 30 minutes. After washing with 5% FBS-containing PBS, detection was carried out by using a flow cytometer (FC500; Beckman Coulter, Inc.). Data analysis was carried out by using FlowJo (Tree Star, Inc.), and mean fluorescence intensity (MFI) of FITC, which indicates the amount of the binding antibody, was calculated. […] In each graph in FIG. 42, the abscissa represents antibody concentrations and the ordinate represents MFI.

human CLDN9 = molecular target: T4, human CLDN9 (human, UniProt O95484 1-217); experiment: as above
T4 construct: NP_066192; It was expressed on 293T cells transiently transfected with human CLDN9/pCMV6-Entry (OriGene); also called claudin-9
T4 sequence: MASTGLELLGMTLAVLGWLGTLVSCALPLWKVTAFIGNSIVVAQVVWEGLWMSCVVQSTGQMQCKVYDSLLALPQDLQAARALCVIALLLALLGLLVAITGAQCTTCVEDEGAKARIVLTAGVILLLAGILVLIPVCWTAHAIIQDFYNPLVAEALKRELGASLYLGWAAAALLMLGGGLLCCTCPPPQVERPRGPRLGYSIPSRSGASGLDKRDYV
Procedure: as §3

human claudin-6 = molecular target: T5, human claudin-6 (Homo sapiens, UniProt P56747); experiment: FACS analysis of 218B1/218C7 antibodies on human claudin-6-expressing CHO-K1 cells; type: binding; conditions: forced expression by cDNA transfection
T5 construct: expressed in transfected cells; host or cells: CHO-K1 cells
T5 sequence (P56747 1-220): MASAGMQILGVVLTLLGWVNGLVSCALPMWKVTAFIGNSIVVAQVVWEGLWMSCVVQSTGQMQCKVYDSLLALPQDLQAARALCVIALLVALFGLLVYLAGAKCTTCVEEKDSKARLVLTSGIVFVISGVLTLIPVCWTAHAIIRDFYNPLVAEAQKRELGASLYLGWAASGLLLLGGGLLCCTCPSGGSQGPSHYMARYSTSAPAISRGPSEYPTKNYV
Procedure: Since the antigen for the 218B1 antibody and 218C7 antibody was estimated to be claudin-6 from the mass spectrometry, forced expression analysis by cDNA transfection was carried out.

BxPC-3 = experiment: Internalization activity by Mab-ZAP (saporin-conjugated anti-mouse IgG), cell survival; type: cell-based; conditions: human CLDN6-negative pancreatic cancer cell line BxPC-3; antibody 1 nM, Mab-ZAP 0.5 nM; 5 days
Procedure: (§4) Internalization activity of the mouse anti-CLDN6 antibodies B1 and C7 was evaluated by using the anti-mouse IgG reagent, to which a toxin that inhibits protein synthesis (saporin) had been conjugated, Mab-ZAP (Advanced Targeting Systems). In this evaluation, Mab-ZAP is incorporated into cells in a manner depending on the internalization activity of a mouse anti-CLDN6 antibody, and saporin, which inhibits protein synthesis, is released in the cells to suppress cell growth.
(§5) JEG-3(ATCC HTB-36), a human choriocarcinoma cell line of human CLDN6-positive cells, NIH:OVCAR-3 (ATCC HTB-161), a human ovarian cancer cell line of human CLDN6-positive cells, or BxPC-3 (ATCC CRL-1687), a human pancreatic cancer cell line of human CLDN6-negative cells, was seeded in a 96-well cell culture microplate at 2×10^3 cells/well, and cultured under conditions of 37° C. and 5% CO2 overnight. On the next day, a mixed solution obtained by mixing each mouse anti-CLDN6 antibody or mouse IgG1 antibody (R&D Systems, Inc.) to a final concentration of 1 nM, with Mab-ZAP (final concentration: 0.5 nM) or AffiniPure Goat Anti-Mouse IgG, Fcγ Fragment Specific (Jackson ImmunoResearch Laboratories Inc.) (final concentration: 0.5 nM), without conjugated toxin, was added, and the cells were cultured under conditions of 37° C. and 5% CO2 for 5 days. The number of surviving cells was determined through quantification of ATP activity by using CellTiter-Glo Luminescent Cell Viability Assay (Promega Corporation).

JEG-3 = experiment: as above; type: cell-based; conditions: human CLDN6-positive choriocarcinoma cell line JEG-3; antibody 1 nM, Mab-ZAP 0.5 nM; 5 days
Procedure: as §4, §5

NIH:OVCAR-3 = experiment: as above; type: cell-based; conditions: human CLDN6-positive ovarian cancer cell line NIH:OVCAR-3; antibody 1 nM, Mab-ZAP 0.5 nM; 5 days
Procedure: as §4, §5

B1: humanized anti-CLDN6 antibody H1L3 (antibody, human IgG1, kappa, L234A L235A, V domains shown)
VH: QVQLVQSGAEVKKPGASVKVSCKASGYTFTEYTMHWVRQAPGQGLEWMGGVNPNSGDTSYAQKFQGRVTITADTSTSTAYMELSSLRSEDTAVYYCARPGGYDVGYYAMDYWGQGTLVTVSS
VL: DIQMTQSPSSLSASVGDRVTITCRASQDINNYLNWYQQKPGGAVKLLIYFTSRLHSGVPSRFSGSGSGTDYTLTISSLQPEDFATYYCQQGYPLPWTFGGGTKVEIKR
notes: hH1 + hL3, with human IgG1 LALA constant region and human kappa chain; also called H1L3 antibody
binding result (human CLDN3): no binding (tested: 100 nM) | binding result (human CLDN4): no binding (tested: 100 nM) | binding result (human CLDN6): binds | binding result (human CLDN9): binds

B2: humanized anti-CLDN6 antibody H2L2 (antibody, human IgG1, kappa, L234A L235A, V domains shown)
VH: EVQLVQSGAEVKKPGASVKVSCKTSGYTFTEYTMHWVRQAPGKSLEWMGGVNPNSGDTSYAQKFQGRVTITADTSTSTAYMELSSLRSEDTAVYYCARPGGYDVGYYAMDYWGQGTLVTVSS
VL: DIQMTQSPSSLSASVGDRVTITCRASQDINNYLNWYQQKPGKAVKLLIYFTSRLHSGVPSRFSGSGSGTHYTLTISSLQPEDFATYYCQQGYPLPWTFGQGTKVEIKR
notes: hH2 + hL2, with human IgG1 LALA constant region and human kappa chain; also called H2L2 antibody
binding result (human CLDN3): no binding (tested: 100 nM) | binding result (human CLDN4): no binding (tested: 100 nM) | binding result (human CLDN6): binds | binding result (human CLDN9): binds

B3: humanized anti-CLDN6 antibody H1L1 (antibody, human IgG1, kappa, L234A L235A, V domains shown)
VH: QVQLVQSGAEVKKPGASVKVSCKASGYTFTEYTMHWVRQAPGQGLEWMGGVNPNSGDTSYAQKFQGRVTITADTSTSTAYMELSSLRSEDTAVYYCARPGGYDVGYYAMDYWGQGTLVTVSS
VL: DIQMTQSPSSLSASVGDRVTITCRASQDINNYLNWYQQKPGKAPKLLIYFTSRLHSGVPSRFSGSGSGTDYTLTISSLQPEDFATYYCQQGYPLPWTFGQGTKVEIKR
notes: hH1 + hL1, with human IgG1 LALA constant region and human kappa chain; also called H1L1 antibody
binding result (human CLDN3): no binding (tested: 100 nM) | binding result (human CLDN4): no binding (tested: 100 nM) | binding result (human CLDN6): binds | binding result (human CLDN9): binds

B4: humanized anti-CLDN6 antibody H2L4 (antibody, human IgG1, kappa, L234A L235A, V domains shown)
VH: EVQLVQSGAEVKKPGASVKVSCKTSGYTFTEYTMHWVRQAPGKSLEWMGGVNPNSGDTSYAQKFQGRVTITADTSTSTAYMELSSLRSEDTAVYYCARPGGYDVGYYAMDYWGQGTLVTVSS
VL: DIQMTQSPSSLSASVGDRVTITCRASQDINNYLNWYQQKPGGAVKLLIYFTSRLHSGVPSRFSGSGSGTDYTLTISSLQPEDFATYYCQQGNTLPWTFGGGTKVEIKR
notes: also called H2L4 antibody
binding result (human CLDN3): no binding (tested: 100 nM) | binding result (human CLDN4): no binding (tested: 100 nM) | binding result (human CLDN6): binds | binding result (human CLDN9): binds

B5: humanized anti-CLDN6 antibody H3L3 (antibody, human IgG1, kappa, L234A L235A, V domains shown)
VH: EVQLVQSGAEVKKPGASVKVSCKTSGYTFTEYTMHWVRQAPGQGLEWMGGVNPNSGDTSYAQKFQGRVTLTVDKSTSTAYMELSSLRSEDTAVYYCARPGGYDVGYYAMDYWGQGTLVTVSS
VL: DIQMTQSPSSLSASVGDRVTITCRASQDINNYLNWYQQKPGGAVKLLIYFTSRLHSGVPSRFSGSGSGTDYTLTISSLQPEDFATYYCQQGYPLPWTFGGGTKVEIKR
notes: hH3 + hL3, with human IgG1 LALA constant region and human kappa chain; also called H3L3 antibody
binding result (human CLDN3): no binding (tested: 100 nM) | binding result (human CLDN4): no binding (tested: 100 nM) | binding result (human CLDN6): binds | binding result (human CLDN9): binds

B6: B1: mouse anti-CLDN6 antibody; heavy/light chain variable regions SEQ ID NO: 21 and 19 (antibody, listed as Mus musculus, V domains shown)
VH: EVQLQQSGPELVKPGASVKISCKTSGYTFTEYTMHWVQQSHGKSLEWIGGVNPNSGDTSYNQKFKGKATLTVDKSSSTAYMELRSLTSEDSAVYYCARPGGYDVGYYAMDYWGQGTSVTVSS
VL: DIQMTQTASSLSASLGDRVTISCRASQDINNYLNWYQQKPDGTVKLLIYFTSRLHSGVPSRFSGSGSGTHYSLTITNLEQEDIATYFCQQGYPLPWTFGGGTKLEIK
modifications: amino acid sequence of variable region of B1 antibody heavy chain; amino acid sequence of variable region of B1 antibody light chain
FACS reaction for human claudin-6-expressing CHO-K1 cells (human claudin-6): strong positive reaction | cell growth-suppressing effect (relative survival rate) with Mab-ZAP (BxPC-3): no cell growth-suppressing effect | cell growth-suppressing effect (relative survival rate) with Mab-ZAP (JEG-3): cell growth-suppressing effect | cell growth-suppressing effect (relative survival rate) with Mab-ZAP (NIH:OVCAR-3): cell growth-suppressing effect

Source: patent US20220168440A1, “ANTIBODY-PYRROLOBENZODIAZEPINE DEPRIVATIVE CONJUGATE” (DAIICHI SANKYO COMPANY, LIMITED, priority 2019, published 2022)
